Data published in PMC8704557 (International Journal of Molecular Sciences, 2021).
Each block holds one molecule with its values, some of them ahead of it.

How the values were obtained:
[1] = biological target: T1, Dye-LDH complex (recombinant dye-linked L-lactate dehydrogenase, STK16540 (α) / STK16550 (β), α3β3) (Sulfurisphaera tokodaii, UniProt Q970D7); test: flavin extracted from purified enzyme, identified by HPLC; format: binding; details: prosthetic group co-purified with the complex
T1 construct: gene ST1655; gene cluster stk_16540-16570 expressed in Sulfolobus acidocaldarius SK1; N-terminal His-tag on STK16540 kept; purified α3β3 heterohexamer, about 253 kDa (subunits 30 and 40 kDa by SDS-PAGE; STK16550 43 kDa); stk_16560 and stk_16570 products not in the purified complex; with Dye-linked L-lactate dehydrogenase, alpha subunit (hypothetical protein with Fe-S cluster motif)
T1 sequence (Q970D7 1-383): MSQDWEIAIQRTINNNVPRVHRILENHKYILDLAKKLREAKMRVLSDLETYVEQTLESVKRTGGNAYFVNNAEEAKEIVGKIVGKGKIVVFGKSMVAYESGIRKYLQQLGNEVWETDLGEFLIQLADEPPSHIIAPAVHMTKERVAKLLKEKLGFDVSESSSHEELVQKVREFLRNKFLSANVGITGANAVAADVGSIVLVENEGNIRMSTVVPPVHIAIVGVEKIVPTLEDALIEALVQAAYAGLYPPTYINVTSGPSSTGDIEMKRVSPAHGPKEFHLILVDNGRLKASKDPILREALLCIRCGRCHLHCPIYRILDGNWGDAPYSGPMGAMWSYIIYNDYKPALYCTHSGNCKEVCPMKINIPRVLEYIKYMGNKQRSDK
T1 sequence (Q970D8 1-287 partner): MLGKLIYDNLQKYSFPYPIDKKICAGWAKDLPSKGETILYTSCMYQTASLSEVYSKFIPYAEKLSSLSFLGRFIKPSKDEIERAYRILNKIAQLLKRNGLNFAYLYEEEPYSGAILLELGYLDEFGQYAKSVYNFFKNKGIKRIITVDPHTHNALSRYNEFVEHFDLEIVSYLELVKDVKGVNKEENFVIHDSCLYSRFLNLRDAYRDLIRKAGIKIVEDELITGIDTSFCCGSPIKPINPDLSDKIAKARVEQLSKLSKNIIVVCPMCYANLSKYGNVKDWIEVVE

[2] = biological target: STK16540 protein (product of stk_16540), alpha subunit of the Dye-LDH complex (Sulfurisphaera tokodaii); test: native gel or EMSA; native gradient PAGE (Novex NativePAGE Bis-Tris gel system) of the purified enzyme; single protein of approximately 253 kDa; subunit masses from SDS-PAGE
[3] = substrate: C[C@H](O)C(=O)O; test: purified protein; details: electron donor, standard assay 0.2 mM DCIP, 200 mM PIPES-NaOH pH 6.5, 60 °C, free enzyme
[4] = substrate: O=C1C(Cl)=CC(=Nc2ccc(O)cc2)C=C1Cl; test: purified protein; format: biochemical, Sulfurisphaera tokodaii; details: electron acceptor, standard assay 40 mM L-lactate, 200 mM PIPES-NaOH pH 6.5, 60 °C, free enzyme

Molecule: Cc1cc2nc3c(=O)[nH]c(=O)nc-3n(C[C@H](O)[C@H](O)[C@H](O)COP(=O)(O)O)c2cc1C [FMN]
flavin extracted from purified enzyme, identified by HPLC [1]: the flavin compound in the enzyme extract was identified as FMN

stoichiometry N (β per α (3:3)) [2]: 1
Molecule: Dye-LDH homolog (product of stk_16550), beta subunit of the Dye-LDH complex (enzyme)

B1: Dye-LDH complex (recombinant dye-linked L-lactate dehydrogenase, STK16540 (α) / STK16550 (β), α3β3) (Sulfurisphaera tokodaii str. 7) (protein)
chain: MSQDWEIAIQRTINNNVPRVHRILENHKYILDLAKKLREAKMRVLSDLETYVEQTLESVKRTGGNAYFVNNAEEAKEIVGKIVGKGKIVVFGKSMVAYESGIRKYLQQLGNEVWETDLGEFLIQLADEPPSHIIAPAVHMTKERVAKLLKEKLGFDVSESSSHEELVQKVREFLRNKFLSANVGITGANAVAADVGSIVLVENEGNIRMSTVVPPVHIAIVGVEKIVPTLEDALIEALVQAAYAGLYPPTYINVTSGPSSTGDIEMKRVSPAHGPKEFHLILVDNGRLKASKDPILREALLCIRCGRCHLHCPIYRILDGNWGDAPYSGPMGAMWSYIIYNDYKPALYCTHSGNCKEVCPMKINIPRVLEYIKYMGNKQRSDK
notes: gene cluster stk_16540-16570 expressed in Sulfolobus acidocaldarius SK1; N-terminal His-tag on STK16540 kept; purified α3β3 heterohexamer, about 253 kDa (subunits 30 and 40 kDa by SDS-PAGE; STK16550 43 kDa); stk_16560 and stk_16570 products not in the purified complex; with Dye-linked L-lactate dehydrogenase, alpha subunit (hypothetical protein with Fe-S cluster motif)
Km [3]: 199 µM
Km [4]: 200 µM
